Measurements taken from US20190276534A1 (Eli Lilly, published 2019).
Values belong to the binder of their own block, whether it stands above or below them.

Legend:
[1] = biological target: T1, human Tim-3-Fc (R&D Systems) (human, UniProt Q8TDQ0 22-130, biotinylated in the phosphatidylserine assay; ruthenylated (sulfo-tag NHS-ester) in the galectin-9 assay); test: flow cytometry, blocking of biotinylated hTIM-3-Fc binding to phosphatidylserine on camptothecin-treated DO11.10 cells
T1 construct: Bought protein; Supplier is not repeated for the CEACAM1 assay; also called hTIM-3-Fc; hTIM-3-Fc Biotin; not shown: Fc part of the bought fusion protein
T1 sequence: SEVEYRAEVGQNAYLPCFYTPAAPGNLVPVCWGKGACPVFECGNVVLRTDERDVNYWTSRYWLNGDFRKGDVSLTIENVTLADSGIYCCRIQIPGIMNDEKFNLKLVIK

[2] = biological target: T1, human Tim-3-Fc (R&D Systems); test: ELISA, human Tim-3-Fc coated, anti-human IgG F(ab')2-HRP detection
[3] = biological target: T2, human Tim-3-IgV-Fc single arm antigen (SAG) (human); test: SPR Biacore T100, antibody captured on Human Fab Binder, Tim-3 SAG as analyte, 1:1 Langmuir with mass transport
T2 construct: Construct is only named; its build is not described; also called Tim-3 SAG; not shown: Fc part; second Fc arm of the single arm antigen; not described
T2 sequence (Q8TDQ0 whole entry, looked up): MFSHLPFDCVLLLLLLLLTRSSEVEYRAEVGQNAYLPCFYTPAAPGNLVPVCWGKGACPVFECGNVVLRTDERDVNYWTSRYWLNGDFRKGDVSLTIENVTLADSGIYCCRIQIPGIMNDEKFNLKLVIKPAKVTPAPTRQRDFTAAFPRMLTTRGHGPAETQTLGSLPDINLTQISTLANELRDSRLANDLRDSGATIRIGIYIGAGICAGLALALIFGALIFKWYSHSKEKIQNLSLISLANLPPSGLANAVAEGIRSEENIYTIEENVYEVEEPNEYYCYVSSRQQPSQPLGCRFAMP

[4] = biological target: T3, cell surface human Tim-3 on Tim-3 DO11.10 cells (human, UniProt Q8TDQ0 22-301); test: flow cytometry, A488-labelled antibody on Tim-3 DO11.10 cells
T3 construct: whole, on cells; Also used as the target for the mixed lymphocyte reaction rows, where Tim-3 is on primary human cells; also called Tim-3 D011.10 cells
T3 sequence (looked up): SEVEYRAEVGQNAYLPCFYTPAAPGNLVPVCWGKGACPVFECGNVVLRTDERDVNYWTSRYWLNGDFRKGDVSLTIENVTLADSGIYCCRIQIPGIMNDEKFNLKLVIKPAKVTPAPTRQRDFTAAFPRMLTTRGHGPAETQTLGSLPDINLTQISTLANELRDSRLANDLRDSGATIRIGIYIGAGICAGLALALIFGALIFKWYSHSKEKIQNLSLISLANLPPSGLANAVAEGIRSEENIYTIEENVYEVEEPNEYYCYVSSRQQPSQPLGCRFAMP

[5] = biological target: T1, human Tim-3-Fc (R&D Systems); test: MSD plate competition assay, ruthenylated hTim-3-Fc binding to coated galectin-9-biotin; competitor galectin-9
hTim-3-IgV-FLAG = biological target: T4, hTim-3-IgV-FLAG (human, UniProt Q8TDQ0 22-130, density indicating glycosylation at Asn99); test: SPR Biacore T200, Fab captured, hTim-3-IgV-FLAG as analyte, HBS-EP, 25 C, 1:1 binding
T4 construct: Purified from 293HEK supernatant; also called hTim-3-FLAG; human Tim-3 IgV domain; not shown: FLAG tag
T4 sequence: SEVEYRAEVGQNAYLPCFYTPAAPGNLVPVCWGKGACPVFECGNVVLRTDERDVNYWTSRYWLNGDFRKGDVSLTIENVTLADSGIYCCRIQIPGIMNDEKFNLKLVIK

human PD-1 on CHO cells = human PD-1 on CHO cells (human, UniProt Q15116 25-288); test: flow cytometry, CHO cells with human PD-1 incubated with antibody 100 nM, then PD-L2-FITC; competitor PD-L2-FITC
human PD-1 on CHO cells, sequence (Q15116 25-288 limits assumed): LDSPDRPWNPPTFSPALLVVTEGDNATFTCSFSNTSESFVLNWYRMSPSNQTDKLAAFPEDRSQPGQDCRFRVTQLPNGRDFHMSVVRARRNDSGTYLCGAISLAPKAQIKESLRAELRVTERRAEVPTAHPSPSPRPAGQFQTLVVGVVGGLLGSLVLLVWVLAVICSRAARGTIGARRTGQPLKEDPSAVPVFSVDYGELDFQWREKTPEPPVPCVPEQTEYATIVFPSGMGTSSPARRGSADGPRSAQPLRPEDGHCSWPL

- IC50 [1]: 0.32 nM
- EC50 [2]: 0.0207 nM
- Kd [3]: 0.398 nM
- koff [3]: 0.000927 s⁻¹
- kon [3]: 2.33e+06 M⁻¹ s⁻¹
- EC50 [4]: 0.09 nM
- IC50 [5]: 5.6 nM
B1: Antibody A (anti-Tim-3 Antibody) (antibody, human IgG1, kappa, V domains shown)
VH: EVQLLESGGGLVQPGGSLRLSCAASGFTFSSYYMSWVRQAPGKGLEWVSAISGSGGSTYYADSVKGRFTISRDNSKNTLYLQMNSLRAEDTAVYYCARYARTAFDLWGQGTLVTVSS
VL: DIVMTQSPSSLSASVGDGVTITCQASQDIYNYLNWYQQKPGKAPKLLIYAASSLQSGVPSRFSGSGSGTDFTLTISSLQPEDFATYYCQQANSFPPTFGQGTKLEIKR
notes: Full IgG; also called anti-human Tim-3

- Kd (hTim-3-IgV-FLAG): 7.92 nM
- koff (hTim-3-IgV-FLAG): 0.00286 s⁻¹
- kon (hTim-3-IgV-FLAG): 362000 M⁻¹ s⁻¹
B2: Antibody A-Fab (Fab, V domains shown)
VH: EVQLLESGGGLVQPGGSLRLSCAASGFTFSSYYMSWVRQAPGKGLEWVSAISGSGGSTYYADSVKGRFTISRDNSKNTLYLQMNSLRAEDTAVYYCARYARTAFDLWGQGTLVTVSS
VL: DIVMTQSPSSLSASVGDGVTITCQASQDIYNYLNWYQQKPGKAPKLLIYAASSLQSGVPSRFSGSGSGTDFTLTISSLQPEDFATYYCQQANSFPPTFGQGTKLEIKR
notes: Made by clipping Antibody A with immobilized papain; the Fc part was not present in the assay; also called Fab for Antibody A

- MFI (PD-L2-FITC) in presence of the antibody (human PD-1 on CHO cells): 24700
B3: Antibody D in IgG1 format (antibody, V domains shown)
VH: QVQLVQSGAEVKKPGSSVKVSCKASGGTFSSYAISWVRQAPGQGLEWMGLIIPMFDTAGYAQKFQGRVAITVDESTSTAYMELSSLRSEDTAVYYCARAEHSSTGTFDYWGQGTLVTVSS
VL: DIQMTQSPSSVSASVGDRVTITCRASQGISSWLAWYQQKPGKAPKLLISAASSLQSGVPSRFSGSGSGTDFTLTISSLQPEDFATYYCQQANHLPFTFGGGTKVEIK
notes: IgG1 format, expressed in yeast; also called Antibody D, in IgG1 format and expressed in yeast
